From article PMC10592472 (Cell reports, 2023)
Read-outs that look alike come from different tables or passages of the source.

Key:
[1] = molecular target: LFA1 (αLβ2) (mouse (endogenous in primary T cells)) (UniProt P24063); experiment: single-molecule imaging
[2] = molecular target: LFA1 (αLβ2) (mouse (endogenous in primary T cells)) (UniProt P24063); experiment: single-molecule imaging; remark: listed apart in the source
LFA1 (αLβ2) = LFA1 (αLβ2) (mouse (endogenous in primary T cells), UniProt P24063 24-1162; P11835 24-771); experiment: flow cytometry on cells
LFA1 (αLβ2), sequence (P24063 24-1162, chain 1 of 2): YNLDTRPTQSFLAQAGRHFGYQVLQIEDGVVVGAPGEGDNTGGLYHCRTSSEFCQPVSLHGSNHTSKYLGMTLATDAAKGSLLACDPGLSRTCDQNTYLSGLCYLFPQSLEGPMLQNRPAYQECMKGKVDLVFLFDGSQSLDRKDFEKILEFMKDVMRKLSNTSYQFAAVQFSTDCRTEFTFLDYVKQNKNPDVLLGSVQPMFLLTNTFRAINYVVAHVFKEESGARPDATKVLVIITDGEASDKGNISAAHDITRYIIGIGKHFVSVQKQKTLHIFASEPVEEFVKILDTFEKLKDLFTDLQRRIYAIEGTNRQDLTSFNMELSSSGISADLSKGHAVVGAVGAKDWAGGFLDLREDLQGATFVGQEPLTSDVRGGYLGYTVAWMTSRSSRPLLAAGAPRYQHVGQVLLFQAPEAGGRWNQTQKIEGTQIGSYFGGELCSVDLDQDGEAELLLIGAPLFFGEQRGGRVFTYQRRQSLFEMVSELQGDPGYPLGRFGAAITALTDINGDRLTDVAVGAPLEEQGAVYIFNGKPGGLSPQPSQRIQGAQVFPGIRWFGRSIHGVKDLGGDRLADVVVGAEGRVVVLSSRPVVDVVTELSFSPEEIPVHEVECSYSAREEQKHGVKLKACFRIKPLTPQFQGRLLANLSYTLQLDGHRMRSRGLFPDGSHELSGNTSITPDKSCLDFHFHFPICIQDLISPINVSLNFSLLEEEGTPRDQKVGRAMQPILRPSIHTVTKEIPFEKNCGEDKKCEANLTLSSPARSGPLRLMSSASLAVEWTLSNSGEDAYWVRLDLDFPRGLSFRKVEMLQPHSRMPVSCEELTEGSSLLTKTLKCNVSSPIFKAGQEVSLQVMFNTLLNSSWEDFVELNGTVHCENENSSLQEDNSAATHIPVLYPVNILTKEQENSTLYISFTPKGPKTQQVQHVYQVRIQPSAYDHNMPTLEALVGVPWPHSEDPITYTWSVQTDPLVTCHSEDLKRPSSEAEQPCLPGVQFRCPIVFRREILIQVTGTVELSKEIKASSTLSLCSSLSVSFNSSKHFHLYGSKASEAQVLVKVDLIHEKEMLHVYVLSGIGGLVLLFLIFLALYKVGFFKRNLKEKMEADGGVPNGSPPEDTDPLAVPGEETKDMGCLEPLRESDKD
LFA1 (αLβ2), sequence (P11835 24-771, chain 2 of 2): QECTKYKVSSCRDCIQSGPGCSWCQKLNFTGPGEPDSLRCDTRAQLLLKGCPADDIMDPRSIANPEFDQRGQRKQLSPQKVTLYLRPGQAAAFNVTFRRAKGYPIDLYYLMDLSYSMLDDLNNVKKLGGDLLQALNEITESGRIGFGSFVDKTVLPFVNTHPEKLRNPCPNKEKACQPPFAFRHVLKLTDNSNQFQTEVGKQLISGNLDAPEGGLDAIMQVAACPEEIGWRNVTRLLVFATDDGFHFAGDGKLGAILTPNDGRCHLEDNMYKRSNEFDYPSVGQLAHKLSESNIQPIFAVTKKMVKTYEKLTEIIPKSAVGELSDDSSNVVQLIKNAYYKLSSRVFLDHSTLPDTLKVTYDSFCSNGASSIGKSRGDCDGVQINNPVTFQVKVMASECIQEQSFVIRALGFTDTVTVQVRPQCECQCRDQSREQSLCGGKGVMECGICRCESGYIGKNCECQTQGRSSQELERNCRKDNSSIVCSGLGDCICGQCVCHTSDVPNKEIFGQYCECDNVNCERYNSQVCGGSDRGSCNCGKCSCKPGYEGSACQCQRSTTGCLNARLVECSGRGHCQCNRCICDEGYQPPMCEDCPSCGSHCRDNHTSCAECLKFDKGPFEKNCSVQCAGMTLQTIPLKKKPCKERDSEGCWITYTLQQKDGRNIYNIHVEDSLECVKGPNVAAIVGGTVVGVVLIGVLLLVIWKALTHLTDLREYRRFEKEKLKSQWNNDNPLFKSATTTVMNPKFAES

LFA1 (αLβ2) (mouse (endogenous in primary T cells)), sequence (P24063 24-1162, chain 1 of 2): as the sequence (P24063 24-1162, chain 1 of 2) above
LFA1 (αLβ2) (mouse (endogenous in primary T cells)), sequence (P11835 24-771, chain 2 of 2, further chain): as the sequence (P11835 24-771, chain 2 of 2) above

mouse ICAM1-GPI (from UniProt P13597 28-537) (ligand)
koff [1]: 0.398 s⁻¹
koff [2]: 0.03 s⁻¹

B1: Mouse ICAM1-Fc (Fc fusion, UniProt P13597 28-485, looked up)
chain: QVSIHPREAFLPQGGSVQVNCSSSCKEDLSLGLETQWLKDELESGPNWKLFELSEIGEDSSPLCFENCGTVQSSASATITVYSFPESVELRPLPAWQQVGKDLTLRCHVDGGAPRTQLSAVLLRGEEILSRQPVGGHPKDPKEITFTVLASRGDHGANFSCRTELDLRPQGLALFSNVSEARSLRTFDLPATIPKLDTPDLLEVGTQQKLFCSLEGLFPASEARIYLELGGQMPTQESTNSSDSVSATALVEVTEEFDRTLPLRCVLELADQILETQRTLTVYNFSAPVLTLSQLEVSEGSQVTVKCEAHSGSKVVLLSGVEPRPPTPQVQFTLNASSEDHKRSFFCSAALEVAGKFLFKNQTLELHVLYGPRLDETDCLGNWTWQEGSQQTLKCQAWGNPSPKMTCRRKADGALLPIGVVKSVKQEMNGTYVCHAFSSHGNVTRNVYLTVLYHSQNN
fold binding against WT T cells (Rasa3/Sipa1-KO T cells, Mn2+) (LFA1 (αLβ2)): 2 fold
